Four substances from publication PMC2649111 can be followed below.

What all share (test): SEC
Assay [1] addresses VARC 87–291 of PfEMP1 (PF08_0141) (P. falciparum 3D7).
The target in assay [2] is VARC 1–291 of PfEMP1 (PF08_0141) (P. falciparum 3D7).
The target in assay [3] is VARC 87–392 of PfEMP1 (PF08_0141) (P. falciparum 3D7).
The target in assay [4] is Full-length cytoplasmic C-terminal domain (VARC 1–392) of PfEMP1 (PF08_0141), unphosphorylated (P. falciparum 3D7).

Consider “VARC 87–291 of PfEMP1 (PF08_0141) (domain or fragment)”, for which the stoichiometry N (commonly the number of molecules, sites or subunits per partner or assembly) in assay [1] amounted to 2.

Take “VARC 1–291 of PfEMP1 (PF08_0141) (domain or fragment)”: the stoichiometry N in assay [2] worked out at 2.

In the case of “VARC 87–392 of PfEMP1 (PF08_0141) (domain or fragment)”, the stoichiometry N in assay [3] was 2.

Regarding “Full-length cytoplasmic C-terminal domain (VARC 1–392) of PfEMP1 (PF08_0141), unphosphorylated (domain or fragment)”, in assay [4], the stoichiometry N is 2.
